The source of these data is article PMC7378079 (Scientific Reports, 2020).

Read-outs that look alike come from different tables or passages of the source.

The target of data set [1] is T1, TNKS2 (tankyrase 2) ARC4 (Homo sapiens, UniProt Q9H2K2).
T1 construct: ARC4 domain (ankyrin repeat cluster 4); CFP-ARC4 fusion in FRET, unlabelled ARC4 in DSF
T1 sequence (Q9H2K2 484-649 limits assumed): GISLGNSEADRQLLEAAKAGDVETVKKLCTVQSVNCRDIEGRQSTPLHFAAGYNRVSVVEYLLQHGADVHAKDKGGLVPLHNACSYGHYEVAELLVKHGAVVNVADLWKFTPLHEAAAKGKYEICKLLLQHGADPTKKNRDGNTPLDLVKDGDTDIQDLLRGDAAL
Kind of data set: FRET competition with YFP-TBM peptide (Ki calculated from IC50); DSF Tm shift […] °C at […]. It counts as binding.

The target of data set [2] is T1, TNKS2 (tankyrase 2) ARC4. The description is as above. It is filed as binding. This is another data set of the same source.
Data set [3] deals with T2, TNKS1 SAM(E1050K)-CFP (human, UniProt O95271 1030-1089, E1050K).
T2 construct: human tankyrase 1 (TNKS1), sterile alpha-motif (SAM) domain; also called ML surface mutant of the TNKS1 SAM domain; source: E. coli BL21(DE3), purified (IMAC); not shown: mCerulean (CFP), C-terminal, kept
T2 sequence (looked up): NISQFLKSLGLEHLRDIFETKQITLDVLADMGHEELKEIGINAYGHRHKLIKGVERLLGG
Kind of data set: FRET or BRET; titration for Kd after Song et al.: CFP-fusion kept constant (50 nM to 1.1 µM), YFP-fusion 0-4,000 nM; FRET emission on excitation at 430 nm; assay buffer 10 mM Bis-Tris-Propane pH 7.0, 3% PEG20,000, 0.01% Triton-X100, 0.5 mM TCEP; 384-well plates, 4 replicates; the paper calls the constants an estimation. As to conditions: both partners purified.

Data set [4] has as its target T3, unlabelled TNKS2 ARC4 (human, His6-MBP removed by TEV; the residual N-terminal SM is omitted; limits from the TNKS2 ARC4 crystal construct convention).
T3 chain: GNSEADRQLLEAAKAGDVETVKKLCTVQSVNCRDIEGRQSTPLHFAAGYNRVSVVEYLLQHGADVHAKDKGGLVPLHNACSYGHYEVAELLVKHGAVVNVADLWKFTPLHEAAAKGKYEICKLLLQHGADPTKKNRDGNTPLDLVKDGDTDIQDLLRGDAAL
Kind of data set: differential scanning fluorimetry; 5 µM unlabelled TNKS2 ARC4, 5x SYPRO Orange, 100 µM TBM peptide; assay buffer pH 7.0, 1% DMSO; 20-95 °C at 1 °C/min; 4 replicates. As to conditions: both partners purified.

Data set [5] addresses T4, CFP-ARC2-3 (TNKS1) (human, mCerulean fusion omitted; conventional ARC limits).
T4 chain: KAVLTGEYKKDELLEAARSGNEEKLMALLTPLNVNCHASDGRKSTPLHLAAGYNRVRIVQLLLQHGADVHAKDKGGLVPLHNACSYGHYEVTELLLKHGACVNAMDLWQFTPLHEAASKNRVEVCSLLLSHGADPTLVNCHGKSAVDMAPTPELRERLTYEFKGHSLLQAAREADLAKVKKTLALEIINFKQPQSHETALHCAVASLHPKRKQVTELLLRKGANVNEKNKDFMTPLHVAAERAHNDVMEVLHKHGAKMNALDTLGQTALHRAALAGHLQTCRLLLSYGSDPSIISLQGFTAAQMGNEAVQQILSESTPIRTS
In words: FRET or BRET; titration for Kd after Song et al.: CFP-fusion kept constant (50 nM to 1.1 µM), YFP-fusion 0-4,000 nM; FRET emission on excitation at 430 nm; assay buffer 10 mM Bis-Tris-Propane pH 7.0, 3% PEG20,000, 0.01% Triton-X100, 0.5 mM TCEP; 384-well plates, 4 replicates; the paper calls the constants an estimation. As to conditions: both partners purified.

Data set [6] deals with T5, CFP-ARC2 (TNKS1) (human, N-terminal mCerulean fusion omitted; conventional ARC limits).
T5 chain: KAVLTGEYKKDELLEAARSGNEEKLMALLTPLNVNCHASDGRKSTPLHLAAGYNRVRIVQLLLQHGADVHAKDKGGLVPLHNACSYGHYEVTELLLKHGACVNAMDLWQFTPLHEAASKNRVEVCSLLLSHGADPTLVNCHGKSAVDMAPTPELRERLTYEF
Described as above. To be noted: both partners purified.

Data set [7] deals with T4, CFP-ARC2-3 (TNKS1). The description is as above. To be noted: both partners purified.
Data set [8] concerns the target T6, CFP-ARC4 (TNKS2) (human, N-terminal mCerulean fusion omitted; limits from the TNKS2 ARC4 crystal construct convention (e.g. 3TWR), as Table S1 is not shown).
T6 chain: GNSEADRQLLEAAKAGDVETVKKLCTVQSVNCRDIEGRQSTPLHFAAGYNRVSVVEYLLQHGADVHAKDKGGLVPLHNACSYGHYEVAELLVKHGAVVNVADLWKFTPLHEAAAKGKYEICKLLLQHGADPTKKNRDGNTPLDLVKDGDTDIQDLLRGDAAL
The description is as above. As to conditions: both partners purified.

For data set [9], the target named is T7, CFP-ARC1 (TNKS2) (human, N-terminal mCerulean fusion omitted; conventional ARC limits).
T7 chain: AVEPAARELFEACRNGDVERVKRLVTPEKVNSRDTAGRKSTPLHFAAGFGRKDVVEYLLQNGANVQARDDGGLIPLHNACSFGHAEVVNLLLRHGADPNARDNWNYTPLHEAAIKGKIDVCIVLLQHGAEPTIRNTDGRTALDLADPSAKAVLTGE
The data set is described as above. As to conditions: both partners purified.

Data set [10] has as its target T8, CFP-ARC5 (TNKS2) (human, N-terminal mCerulean fusion omitted; conventional ARC limits).
T8 chain: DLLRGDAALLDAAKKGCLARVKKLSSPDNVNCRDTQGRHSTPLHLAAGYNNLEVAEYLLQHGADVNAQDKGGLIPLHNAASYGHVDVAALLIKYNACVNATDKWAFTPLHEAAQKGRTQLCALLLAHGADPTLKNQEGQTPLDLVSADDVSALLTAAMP
The data set is described as above. As to conditions: both partners purified.

Data set [11] concerns the target T9, CFP-ARC5 (TNKS1) (human, N-terminal mCerulean fusion omitted; conventional ARC limits).
T9 chain: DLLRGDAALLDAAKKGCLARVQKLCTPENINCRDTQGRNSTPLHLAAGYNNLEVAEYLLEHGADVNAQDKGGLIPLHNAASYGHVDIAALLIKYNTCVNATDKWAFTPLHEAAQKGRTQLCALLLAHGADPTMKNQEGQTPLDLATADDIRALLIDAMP
Described as above. To be noted: both partners purified.

Data set [12] deals with T10, CFP-ARC4 (TNKS1) (human, N-terminal mCerulean fusion omitted; limits by homology to TNKS2 ARC4 488-649).
T10 chain: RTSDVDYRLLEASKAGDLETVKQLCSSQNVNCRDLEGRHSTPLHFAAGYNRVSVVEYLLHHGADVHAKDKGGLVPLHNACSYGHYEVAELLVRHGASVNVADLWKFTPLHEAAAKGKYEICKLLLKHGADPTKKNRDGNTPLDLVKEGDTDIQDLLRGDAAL
The description is as above. As to conditions: both partners purified.

Data set [13] deals with T11, CFP-ARC1 (TNKS1) (human, N-terminal mCerulean fusion omitted; conventional ARC limits).
T11 chain: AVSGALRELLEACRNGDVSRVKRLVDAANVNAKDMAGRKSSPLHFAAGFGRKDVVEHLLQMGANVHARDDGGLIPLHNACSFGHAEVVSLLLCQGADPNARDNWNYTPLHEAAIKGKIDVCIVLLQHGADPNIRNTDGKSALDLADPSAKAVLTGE
The data set is described as above. As to conditions: both partners purified.

Take `O=C(O)c1cc(O)c2c(Cl)cc(Cl)cc2n1` [DCKA, 5,7-dichlorokynurenic acid]: the Ki – broadly, the dissociation constant of the complex between target and ligand, obtained from inhibition or displacement – in data set [1] is 62000 nM.

Regarding `O=c1[nH]c2cc(C(F)(F)F)c(N3CCOCC3)cc2n(CP(=O)(O)O)c1=O` [Fanapanel], in [2], the Ki is 20000 nM.

B1: TNKS1 SAM(Y1073A)-YFP (domain or fragment, human, UniProt O95271 1030-1089, looked up)
chain: NISQFLKSLGLEHLRDIFETEQITLDVLADMGHEELKEIGINAAGHRHKLIKGVERLLGG
notes: human tankyrase 1 (TNKS1), sterile alpha-motif (SAM) domain; also called EH surface mutant of the TNKS1 SAM domain; source: E. coli BL21(DE3), purified (IMAC); not shown: mCitrine (YFP), C-terminal, kept
Consider B1, for which, in data set [3], the Kd (usually the equilibrium constant for the complex coming apart) was 560 nM.

B2: TBM-peptide (REAGDGEE) (peptide)
peptide: REAGDGEE
notes: also called 8-mer TBM peptide; source: synthetic peptide, bought: JPT Peptide Technologies
Regarding B2, the “Tm shift at 100 µM” value in data set [4] amounted to 2.94 ± 0.16 °C.

B3: YFP-TBM (peptide)
chain: REAGDGEE
notes: also called TBM (REAGDGEE); YFP-fused TBM; source: E. coli BL21(DE3), purified (IMAC); not shown: mCitrine (YFP), N-terminal, kept
As for B3, the Kd is 13 nM in data set [5]; 8.2 nM in [6]; 12 nM in data set [7]; 35 nM in [8]; 970 nM in [9]; 33 nM in data set [10]. The values for the Kd in data set [11], in data set [12] and in data set [13] were 27 nM, 45 nM and 2600 nM, respectively.
